Assay: soluble fraction after stress (log2 fold change); higher = more stays soluble; pooled small domains, quantitative proteomics
Details: stress: 75 degC
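Note: 20 min heating vs room temperature control held 20 min.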

Sequence	soluble fraction (log2)
HMSLAISGRNQLHGIIEEVRSDGLLSQIYLRVGDQVLTAVITRDAVAELKLKRGDTAVAIMKSTEVMIARE	0.38
HMSVNAPMPGKIVNVLVSEGQKVNSGDVLLILEAMKMQNEIAATQAGTVKAINVAAGQSVKVGDALVN	-0.0534
HMSHGFFELKTTQKEALIKLLDSHPNFTHTKTEADLTTAFLKLPMDAEQFNKLLFTNGIVLSHLVKRK	-0.581
HMFSPSDEDLELAHRQIRAFEEVEANGKSIAVVDGRIVESLHIVTARDTLEKAKAITALAEEM	0.000997
HMKSQSIFNVKKGDTLSHIAVHVLKKNKQKVTPEAINKMVSNIAFRNKIKNPDLIFPGQKLVLEY	-0.169
HMNDPFVILGVSKDASQSEILEAYKQKRAYYQERVFDEGDEGAQAARMLTQLDDAYQQAMELSHES	0.183
HMKDNIRSILEDIPNIGPGRRRALLKHFGSIEAIRRASLEDLIKVDGMNRNAALSIMEYFGM	-0.286
HMNEFNEVVPDSLEGERLDRLLAFIGNISRSEASNIIKGGEVLINGKVVTRPSFKVTLGNRVEFSIRD	-0.531
HMNTETAVTKAIDQIQVMMDLRNRSVSFTRDQETGTDIIKVIDDNTGDTIRQMPSEELLTFMKNLTQ	0.165
HMHYNMNYLENLTKTELFDLAKNKFGLTYAEMERHLSIPEGGARYAIKAEHSKYGSDIKKYLVEFLLE	-1.06
HMTKDVIEIVDGNKFVFHKTIATDSVSSVINKYHISEADFRTWNELTGDMKVGEEYIVQLSLH	-0.87
HMLHMKAALGELMSIPGMRSELAGTLFDRGYTSLAQLRAATLDDLERVNGLERADARRIHDFLRKS	-0.251
HMVVVLPGETIKIDLIREGKDKQALGYLEDGTMIVVDNAKHLIGKNVEIEIDNVLPKEAGRVIFASLHGA	-0.388
HMDLTSDANLKEAKDQILNLLNDGKRHHVTEINKILLPPVQVQEALRFLIHEETVRVDASFLF	-0.104
HMIEKVNDYVVRFANVNGTGSASANNLFALAIYRMGVPVTPKNIFPSNIQGLPTWFEVRVSGSGYLARRG	0.162
HMDMDRRALLLALINDRYHASVAEFARAINKAPAQVHQWLSGNRALGNAGARDIEIRLNLAQGYFDH	-2.16
HMAELTTVQAADILHVSRPFLIKLLDEGQIPYHRVGKHRRIRMEDVMNYKRAIDQQREAVLDQLVAEA	-0.371
HMTLPQEPTVLPRPLRVGDTVHIRTLDKDAEVLALPDARGMVAVRAGIINTKVKLTDLTLVEEK	-0.0272
HMSINIDEEKKILGPNADQIIKGITTWGQGLVSKGIWSDADFEEFKIFAATGNGINALNKVRKYY	-0.338
HMNAAFMKAERLLAILNILLTGKRVSSTELAKKLEVSVRTVYRDVEALSEAGFPVYATMGRDGGFGLIEGF	-2.09
HMPTELVYTVPASAEGLRLDHFLVQHVPHMTRALATELTGAGGVRVNGRRAKKGDRLPSGAEVRLER	0.0576
HMHHDDHNQQEEIKEKLLAMVADGERHHVTEVRQLDEDWDMVTKVMKELMDEEQLLMDGSYLILSA	0.116
HMGTYYTEIIAQLKKEIANGTWKLGERLPGELALAKQFNVSRSSIREALKALAYAGIVESKPGRGTFLLHV	-1.5
HMVGAEDISKPMNLGALMRTAHAFGASFFFTINAHPKVRHAYNSDTSRSFDHMPYYPWDTMEE	0.151
HMTKSTSMDLGGFMIVEGSETVRLGGQILQKDVDYTIDYFSGKINFISEEALNPGAEISVSYEENQ	-0.225
HMHVLAVDEALHKLTELNELHAKIVEMRFFSGMTVQEVADELGVSKRKIESEWTMIKAWLRKELN	-0.199

Sequence	soluble fraction (log2)
HMTNADRYIGQEATVTEKISNELSTGAVRIGGLVWTARTVDNSEAEEGERVTVEAIEGAKLLVKRR	0.132
HMDNMFMPPVNGWDVRQALQKLQNEMGLQVKMEYSPSETITEGYVISYTPIDGMKVEKGDEVTLVISTGPE	-0.0359
HMSQDTLIENGKVFLIHKVVAGQTLYGLSKAYNITIEDIIKYNPQAENGIKIGEDIKIFLKEE	-0.924
HMGPVPLASAADMEKFYSHLQQVLDEVDFKDRTGSGHLMARLRRLFQRTVLDQNEINILRGILMAVQGRR	-3.03
HMKAKTYTVQYIDEGKIIKEEELEEGSIINAPEVTKEGHTFIGWYEGEEKYDVYEPITRNLILESKNEIN	-0.176
HMVAREAYTTQNLTDVFSISRQAVEKRAKREGWQSVPRKGRGGGKLWVVSSMPAETRDLLASLLLRK	-0.608
HMGRSARVQQAVHQAVRALLEENDGERSALSVPLVAERAGVNSSTIYRRWGDLPRLLAAVASN	-0.686
HMAQMDDPEMVLHIYNKMIQQRLFDTAVGYSYLKDLQEYLQSIPFIRKEDIFPIPVQHPQVEESLRKAK	-0.689
HMHSKQRDAIFENLRSRKDHPTAEEIYLSLKPAMPAISLATVYRNLAQLENEGLILRLGSGGSARYDGDT	-0.467
HMTIGEALLNLRKQLGLNQTEMAANVVSTSFYSKVERNIHDIGTKDLLQILNKHQINATYFFENLN	-1.82
HMELLTNPLTGREVEVLTLMALGQTNHEIARQLYLATGTVKAHTSSIYRKLDVANRTEAVARARQLGIL	-2.32
HMGKSPLDALSAREKEVLTYITRGVSINDIAAVLYLSPKTVSTHKTNLMQKLGIENNADLILFGVNHGLND	-1.51
HMANLDSLIKKVGQYAKDKQSISVDGIKKDLSIDKDMVKEALAELLKIGVVDKPDEAGQYKVIM	0.51
HMIAPQISSGKVNTKELNVRSGPATTFGIVKKLPLNAMVGIFEEKNGWFRIATGQWVSKTYVDL	-2.33
HMTVEMYIGKTANVLETVTENNGRIAIFGEEWQAKSLNGETIEKGAQAKIVKNDSIIMYVVPI	-0.443
HMSSEMATLRSIVDNKQAEKVHGMMVDMFTASAMVQVYDKVNDENQAKMREMLKTQKGFQRMADFALSKI	-0.143
HMQEDKVRKLTEMGFAEDQAREALRKHDWDETMALNSL	0.262
HMNKKEIISVLEKIIPPSQIKNINIFGSELVIDLNIDNPSLHAKKKLEKSIMSSFDENLKIIVNFSVE	-0.252
HMTVKEVGYDTFLTMLDKKEIKQVQVEDNQIIFSDNADPVNYYKTGVFNDPDLVNRLQDAGVEFG	1.01
HMKNEYAMVIQVNGKLRGNMLVSADLEQKDIERMALDNEDIKRFISHENDVKKMIFVPKKLINIVT	-1.21
HMSQEHTVPDYKDMEATVVYADLTQKGLNYEIAQETSPTIKEGNVTQTIPGMNEKVVSGDTITVFVSTGTG	0.431
HMENTIESLLKAKGFNDIIVTVSDKQVDVVVSDKEIADNKRAQIEDVIKRKTGLEASAITITPA	0.127
HMSSRSLTYSDFIERVDAGQVDAVTLDGERIVIRAKDGNTYVAIKPQGEDVTGSLTRDLIAKGVDVEAEPQ	0.204
HMKYEFEFPYWSNKEAKHMIVTINYPNGTRATASIQDNDGSNPDYKRIMEEFGEEQIDANTEEGLKRR	-0.0803
HMGEQETILKGDVNRDGVVDVNDVTHLQIHISNDDKNPLIDVTNKAWFDAADMYGDGKLDILDATALQIYI	0.196
HMNVVSIEHIRTHLQNHLSLIGRSIEESFNEAKVIAFVASLFLTHRGYASVSQDMGTNGEIYLQDLW	-0.465

Sequence	soluble fraction (log2)
HMQDTYLYPVQHNGKVRLQVELPAKGLPEDLVRLALAHPKVVEWLNGRIPTKTIAVPGRIINMVLPNQ	-0.638
HMTSQVTVHVVGAVEKPGVVTLDAPSRVQDALEAAGGALPEAELSGVNLARELFDGEQIVVPAQGEDV	0.342
HMTLPEKSKRLFSQDDFWDQIFYRIGEGQSLREVSKYYKIPYTTIHDRIHSDEGIKLKYLEALTS	-0.882
HMTKTFDSPEDADNDVLAKTLFQIFGVQSVYLKENFVTITKSNSVGWHTLMEKTGHTLEEHLKF	0.0905
HMSFGWELYKGKEGIADTDLHPSGWIRIADKRVFAVSEGEFIEKGLEIIVLSVDGNRIVVRELK	-1.93
HMSRAMFEMHADWQPTDSIRGLLGRAGLPTDIAKLDQSRIGDFVNHWFGKPDRNTADSWNGLLVGWLKRTQ	-1.18
HMSITKDNLSIGTNIRISGFSDIGRIISIPNKGNQVQVQIGSAKMNIKINSIVEIIKEEKDFNKNISN	-1.48
HMKTYGGDNSLHKFDEHHSWMVAKYGPVVKQTINGETKWLKVKKDLTLAQVKKMKLEDVLLPKSQT	-0.534
HMSSEPASLVGKTGVAASVLRPSGRVEVNGEYYDAVSINGFIEKGESVFVHKYENAQLYVSKNSE	0.162
HMADEGFRQTVLAVLARWESKIHHGQYNALKAKVMNGNWSSFVKQVVKFQGKFIHPDAAKELLGLFG	-3.5
HMFEERKKDWNLTGLLDDVIRRYIHQLTNDELNEINLEKSSGMPDEEIKNGIKLPLAVMQQRRETWGS	-0.252
HMEILTRQLTHYLHLLPPAQQEVVRGVYLQDQTLQEIADRVQIPLGTVKSRLRLGLSKLREQIEQEHE	-1.36
HMFANQLLLTRFDLNYIKSDVLSRQIDVLGIPIKKLTIEANNKSIWLQGTSQSLSKVRELIGIIDIRENA	-3.38
HMNSHKIIDRLNQMITEKDLSEEMPAITEAFKNNERSAEDLKKYVAENLSKKLNAEEREKFVSLILQYRN	-0.0788
HMDLDLNIDNYNFDDLLNLFGLKMKFSEDDLKKAKRSVLMTHPDKSGLDKQYFMFFTKAYKMLSQIYYFR	0.572
HMSNATELVYDDGRKLLISYETLVGGYHPDLGWIRTAKTYSISTDKHIRNYFNNVTNPRVVGEDILETLKI	0.109
HMPVFSAEQVAKAEADVQKVANKVQEAGADVEKLTTIHNWLLAREKYMPPDLFSTANQIIATAFQKAG	0.525
HMQLPTNAAAILRYLSSGAVKGVGSATAVRIVEKFGEETLNILEQDPLRLAEIRGISRDKAKKIGEDFASQ	-0.322
HMAVSNWQKLVSSIQTQLKILALYHGPEDGIYGPNTRSAIMLYEENIGLPVTGEPSRELLAHMLDQTD	-1.64
HMKISIDNPSVLLDKLATLFPDTSKNKLRKMLTEGRIYVNDNIEHRAKRELINGDTVKILDKTTSKE	-0.121
HMQAKQVAIPDVANYSVTDAIKKLQDAGFIVSDEQREEANETVSEGKVSRTSPAAGSIRKEGTEIILYKSL	0.361
HMRRLGTTEIAGILRREISQGILIAKERLPSERSLADTYGVARGTVRQALNLLAREGLVQIRRSSGAYVTF	-0.458
HMNTGLSEREHEIAQLVLQGRTYAEIGAELFISPRTAEHHIGQIRRRLAATSRSDLLAKLRVAMNTTEGAG	-2.36
HMSDPASLQRRLMSDPELTARILDSPFTRSLLDDPNLLRQMVNANPQLRRAMDANPQLRHAL	-0.267
HMQKIEKVDYGTFLKMIENGEIDQVNLTEKKISFTTDKDAETVYETGRVEDPNIVDRLYQADVEFTQEI	0.598

Source: the domain aggregation screens of Martell et al. (2025)
